Measured values from article PMC3576412.

What was measured:
Im9 (Escherichia coli) = Im9 (Escherichia coli) (UniProt P13479); settings: cited from earlier work
[1] = biological target: DNase domain of colicin E9, E9 (S3C) (E. coli); test: dynamic force spectroscopy (AFM)

For “Colicin E9 DNase domain (from UniProt P09883)”, the Kd (Im9 (Escherichia coli)) is given as 0.016 pM.

B1: Im2 (D33A), pulled from residue 81 (natural protein)
chain: MELKHSISDYTEAEFLEFVKKIARAEGATEEDANKLVREFERLTEHPDGSDLIYYPRDDREDSPEGIVKEIKEWRAANGKCGFKQG
Work on B1 yielded a k0F off (outer barrier) [1] of 7.6 s⁻¹.
